Source: US20170016905A1 (VAR2 PHARMACEUTICALS, published 2017)

Target: T1, CSPG (bovine) (D8428, Sigma) (bovine, UniProt P21793 31-360, carries chondroitin sulfate A (CSA) glycosaminoglycan chain(s); the filing attributes the binding of VAR2CSA to this glycan)
T1 construct: also called chondroitin sulfate proteoglycan; CSA proteoglycan
Experiment: quartz crystal microbalance (Attana A100); legend: N/A = no KD value could be determined, due to a lack of binding to CSA

T1 sequence (P21793 31-360): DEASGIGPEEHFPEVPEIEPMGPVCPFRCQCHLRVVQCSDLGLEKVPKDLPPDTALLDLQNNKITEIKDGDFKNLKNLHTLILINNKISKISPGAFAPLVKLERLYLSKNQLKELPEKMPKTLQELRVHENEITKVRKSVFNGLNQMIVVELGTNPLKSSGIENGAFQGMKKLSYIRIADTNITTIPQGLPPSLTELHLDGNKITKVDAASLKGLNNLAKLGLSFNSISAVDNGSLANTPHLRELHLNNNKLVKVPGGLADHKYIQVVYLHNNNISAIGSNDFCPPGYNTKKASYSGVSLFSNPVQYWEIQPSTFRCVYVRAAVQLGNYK

B1: ID1-DBL2Xa (3D7, Baculo) (other)
chain: LSFILNSSDANNPSEKIQKNNDEVCNCNESGIASVEQEQISDPSSNKTCITHSSIKANKKKVCKHVKLGVRENDKDLRVCVIEHTSLSGVENCCCQDFLRILQENCSDNKSGSSSNGSCNNKNQEACEKNLEKVLASLTNCYKCDKCKSEQSKKNNKNWIWKKSSGKEGGLQKEYANTIGLPPRTQSLCLVVCLDEKGKKTQELKNIRTNSELLKEWIIAAFHEGKNLKPSHEKKNDDNGKKLCKALEYSFADYGDLIKGTSIWDNEYTKDLELNLQKIFGKLFRKYIKKNNTAEQDTSYSSLDELRESWWNTNKKYIWLAMKHGAGMNSTTCCGDGSVTGSGSSCDDIPTIDLIPQYLRFLQEWVEHFCKQRQEKVKPVIENCKSCKESGGTCNGECKTECKNKCEVYKKFIEDCKGGDGTAGSSWVKRWDQIYKRYSKYIEDAKRNRKAGTKNCGPSSTTNAA
notes: not shown: V5 and His tag at the C-terminal (modified pAcGP67-A)
Does B1 bind?
Result: no binding
